From PMC3951589

Target: pIICASV-GP2(267–351) (not stated | CAS virus (CASV))
Test: SEC

**Q.** Which stoichiometry N does the source give for “pIICASV-GP2(267–351) (domain or fragment)” here?
**A.** 3
